In patent publication US20180022822A1, “NOVEL ANTI-FIBROBLAST ACTIVATION PROTEIN (FAP) BINDING AGENTS AND USES THEREOF” (Mabimmune Diagnostics AG, priority 2016, published 2018):

Assays:
[1] = tested on: arterial occlusion (thrombosis); assay: carotid artery photochemical injury-induced thrombosis model; type: in vivo, mouse
Experimental: The carotid artery photochemical injury-induced thrombosis model begins with anesthesia by intraperitoneal injection of sodium pentobarbital (87 mg/kg body weight). After slight tail warming (using warm water) rose bengal (10 mg/mL in PBS) is injected into the tail vein in a volume of 0.12 mL at a concentration of 50 mg/kg. Mice will then be secured in a supine position (with the head pointing towards the operator) and placed on a heating pad (rectal temperature will be monitored) under a dissecting microscope. Following a (2.5-3 cm) midline cervical incision and a small incision of the larynx to provide a tracheostoma, by blunt preparation the right common carotid artery is exposed and cleared of connective tissue. A surgical stitch is employed to fix the sternocleidomastoid muscle aside to the right and increase access area to the right carotid artery. Care must be taken to avoid excessive vessel manipulation during procedures. Curved-tip tweezers will be employed to slide under the vessel (from the left side) and gently lift it so as to place the probe under and around it. The probe will be placed as proximal as the access area allows it to be and its connection wire should then be placed on a micromanipulator to fine-adjust its position. (The probe should be perfectly aligned with the vessel so as not to cause any resistance to flow). Little surgical ultrasonic gel should be applied on top of the probe to increase signal quality. Within 6 minutes of Rose Bengal injection, a laser beam will be aimed at the carotid artery and kept at fixed distance of 6 cm for 60 minutes. Flow will be measured during these 60 minutes and for further 60 minutes (max time elapse 120 minutes) or until occlusion occurs. Occlusion is considered as a constant (≧1 min) flow below 0.1 ml/min. Mice are euthanized by an overdose of pentobarbital immediately (25 mg) after the occlusion analysis is completed.
Mice will be placed on a heating pad, to avoid a drop of body temperature. Heart rate (probe measuring the blood flow will also measure the heart rate) will be monitored during the surgery. Anethesia depth will be checked before starting the surgery and during the experiment by pedal withdrawal reflex (animals hind limb will be extended and the interdigital webbing of the foot will firmly pinched by the use of an atraumatic forceps; if there is no withdrawal reaction to the toe pinch, animals will be judged deep enough).
The chosen dose of anesthesia sodium pentobarbital (87 mg/kg body weight) is sufficient to keep the animal in deep anesthesia for the whole duration of the experiment. No second dosing is necessary. […]

[2] = molecular target: T1, active recombinant mouse FAP (Mus musculus, UniProt P97321); assay: DQ-gelatin cleavage inhibition, active recombinant mouse FAP; type: biochemical
T1 construct: expressed in a HEK293 cell line without the transmembrane and intracellular domains and an N-terminal 6× histidine tag; made in house; host or cells: HEK293
T1 sequence (P97321 26-761 limits assumed): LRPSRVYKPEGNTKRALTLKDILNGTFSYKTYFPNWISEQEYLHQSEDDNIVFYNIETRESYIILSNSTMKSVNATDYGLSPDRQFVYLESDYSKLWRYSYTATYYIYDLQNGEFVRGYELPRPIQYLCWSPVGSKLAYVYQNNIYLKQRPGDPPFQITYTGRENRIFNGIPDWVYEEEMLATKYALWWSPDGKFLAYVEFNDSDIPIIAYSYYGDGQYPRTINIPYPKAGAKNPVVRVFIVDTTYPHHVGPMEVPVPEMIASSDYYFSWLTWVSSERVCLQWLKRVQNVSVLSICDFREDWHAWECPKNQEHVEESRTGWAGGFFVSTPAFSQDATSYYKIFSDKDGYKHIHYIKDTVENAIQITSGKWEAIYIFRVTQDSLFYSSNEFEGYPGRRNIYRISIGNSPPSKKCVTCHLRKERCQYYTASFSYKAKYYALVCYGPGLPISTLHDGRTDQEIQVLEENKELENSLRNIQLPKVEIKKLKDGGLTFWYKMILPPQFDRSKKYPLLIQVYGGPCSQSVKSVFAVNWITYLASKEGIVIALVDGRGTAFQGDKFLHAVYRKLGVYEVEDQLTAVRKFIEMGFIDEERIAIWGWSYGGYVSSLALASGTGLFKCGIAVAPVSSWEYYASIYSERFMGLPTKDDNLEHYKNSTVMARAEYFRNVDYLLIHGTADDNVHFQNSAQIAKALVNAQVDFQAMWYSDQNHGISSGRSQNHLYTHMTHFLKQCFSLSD
Experimental: To determine the inhibitory ability of NI-206.82C2 against active recombinant murine FAP, recombinant murine FAP was expressed in a HEK293 cell line without the transmembrane and intracellular domains and an N-terminal 6× histidine tag. A 96-well ELISA plate was then coated with 50 uL of murine anti-His tag antibody at 6 μg/mL in PBS overnight at 4° C. The wells were then blocked with 60 μL of 2% BSA in PBS for 1 h at room temperature, and 50 μL of recombinant mouse FAP containing cell culture supernatant diluted 1:4 was added to the well and incubated overnight at 4C while gently shaking. Following three washing steps with PBS, 20 uL of sterile 12.5% BSA/PBS solution was added to all wells.

potency for inhibiting active recombinant mouse FAP compared to Val-boro-Pro and F19 [2]: higher potency
B1: NI-206.82C2: human-derived recombinant anti-FAP antibody; VH SEQ ID NO: 2 or 4 (PIMC), VL SEQ ID NO: 6 (antibody, V domains shown)
VH: QVQLQQSGPGLVKPSQTLSLTCAISGDSVSSNSVTWNWIRQSPSRGLEWLGRTYYRSKWYNDYAVSVKGRITINPDTSKNQFYLQLKSVTPEDAAVYYCARDSSILYGDYWGQGTLVTVSS
VL: QAVLTQPSSLSASPGASASLTCTLPSGINVGTYRIFWFQQKPGSPPQYLLSYKSDSDNHQGSGVPSRFSGSKDASANAGILLISGLQSEDEADYYCMIWHSSAWVFGGGTKLTVL
occlusion time ([1]; 20 mg/kg i.v. versus vehicle control, n=4): significantly prolonged
median time to occlusion ([1]; 2, 7 and 20 mg/kg versus PBS and 43A11): dose-dependent increase
Log-rank hazard ratio of arterial occlusion ([1]; versus 43A11 isotype control): 0.04
dose at which significant increase in median time to occlusion starts ([1]; versus PBS and 43A11 at 20 mg/kg): 2 mg/kg
